Experimental data taken from patent publication US20240132578A1.

Key:
Experiment in all cases: cell-based or functional assay
[1] = biological target: HIV-1 JRCSF Env (HIV-1 isolate JRCSF (clade B)) (UniProt P20871)
[2] = biological target: HIV-1 APV6 envelope glycoprotein (Env), clade B pseudovirus (HIV-1)
[3] = biological target: HIV-1 92UG024 envelope glycoprotein (Env), clade D pseudovirus (HIV-1)
[4] = biological target: HIV-1 CMU02 envelope glycoprotein (Env), clade AE pseudovirus (HIV-1)
[5] = biological target: HIV-1 92RW020 envelope glycoprotein (Env) on virus (HIV-1, clade A, isolate 92RW020)
[6] = biological target: HIV-1 93UG077 envelope glycoprotein (Env) on virus (HIV-1, clade A, isolate 93UG077)
[7] = biological target: HIV-1 MGRM-D-001 envelope glycoprotein (Env) on virus (HIV-1, clade D, isolate MGRM-D-001)
[8] = biological target: HIV-1 94UG103 Env (pseudovirus) (HIV-1)
[9] = biological target: HIV-1 JRFL Env (pseudovirus) (HIV-1)
[10] = biological target: HIV-1 94UG103 envelope glycoprotein (Env) (HIV-1)
[11] = biological target: HIV-1 92BR020 envelope glycoprotein (Env) (HIV-1)
[12] = biological target: HIV-1 APV6 envelope glycoprotein (Env) (HIV-1)
[13] = biological target: HIV-1 JR-CSF Env R315A (HIV-1 (isolate JR-CSF, clade B)) (UniProt P20871)
[14] = biological target: HIV-1 envelope glycoprotein (Env) of isolate MG RM-A-004 (HIV-1)

Chain of 5329_C19 (PGT-136) (antibody) (VH): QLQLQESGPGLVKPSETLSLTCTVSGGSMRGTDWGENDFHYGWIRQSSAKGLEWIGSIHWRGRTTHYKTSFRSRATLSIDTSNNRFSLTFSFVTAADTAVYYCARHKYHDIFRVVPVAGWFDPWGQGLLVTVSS
Chain of 5329_C19 (PGT-136) (antibody) (VL): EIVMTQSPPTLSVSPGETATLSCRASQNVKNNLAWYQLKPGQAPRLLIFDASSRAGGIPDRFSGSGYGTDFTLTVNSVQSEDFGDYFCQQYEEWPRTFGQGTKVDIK

4838_L06 (PGT-121) (antibody)
Neutralization IC90 [1]: 0.223 µg/mL | Neutralization IC95 [1]: 0.417 µg/mL

4858_P08 (PGT-123) (antibody)
IC50, pseudovirus neutralization [2]: 0.0328 µg/mL | IC80 (pseudovirus neutralization) [2]: 0.145 µg/mL | IC90 (pseudovirus neutralization) [2]: 0.339 µg/mL | IC95 (pseudovirus neutralization) [2]: 0.726 µg/mL | IC50, pseudovirus neutralization [3]: > 10 µg/mL | IC80 (pseudovirus neutralization) [3]: > 10 µg/mL | IC90 (pseudovirus neutralization) [3]: > 10 µg/mL | IC95 (pseudovirus neutralization) [3]: > 10 µg/mL | IC50, pseudovirus neutralization [4]: > 10 µg/mL | IC80 (pseudovirus neutralization) [4]: > 10 µg/mL | IC90 (pseudovirus neutralization) [4]: > 10 µg/mL | IC95 (pseudovirus neutralization) [4]: > 10 µg/mL

4877_D15 (PGT-122) (antibody)
Neutralization IC80 [5]: 0.0407 µg/mL | Neutralization IC90 [5]: 0.113 µg/mL | Neutralization IC95 [5]: 0.289 µg/mL | neutralization IC50 [5]: 0.0072 µg/mL | Neutralization IC80 [6]: 0.931 µg/mL | Neutralization IC90 [6]: 2.1 µg/mL | Neutralization IC95 [6]: 3.88 µg/mL | neutralization IC50 [6]: 0.191 µg/mL | Neutralization IC80 [7]: 4.48 µg/mL | Neutralization IC90 [7]: > 10 µg/mL | Neutralization IC95 [7]: > 10 µg/mL | neutralization IC50 [7]: 0.867 µg/mL

5123_A06 (PGT-125) (antibody)
Neutralization by PGT-125, IC50 [8]: 0.0124 µg/mL | Neutralization by PGT-125, IC80 [8]: 0.0373 µg/mL | Neutralization by PGT-125, IC90 [8]: 0.071 µg/mL | Neutralization by PGT-125, IC95 [8]: 0.129 µg/mL | Neutralization by PGT-125, IC50 [9]: 0.0156 µg/mL | Neutralization by PGT-125, IC80 [9]: 0.0462 µg/mL | Neutralization by PGT-125, IC90 [9]: 0.0873 µg/mL | Neutralization by PGT-125, IC95 [9]: 0.157 µg/mL

5329_C19 (PGT-136) (antibody)
Neutralization IC80 [10]: > 10 µg/mL | Neutralization IC90 [10]: > 10 µg/mL | Neutralization IC95 [10]: > 10 µg/mL | neutralization IC50 [10]: > 10 µg/mL | Neutralization IC80 [11]: > 10 µg/mL | Neutralization IC90 [11]: > 10 µg/mL | Neutralization IC95 [11]: > 10 µg/mL | neutralization IC50 [11]: > 10 µg/mL | Neutralization IC80 [12]: > 10 µg/mL | Neutralization IC90 [12]: > 10 µg/mL | Neutralization IC95 [12]: > 10 µg/mL | neutralization IC50 [12]: > 10 µg/mL

5343_B08 (PGT-135) (antibody)
Fold IC50 increase relative to wild-type [13]: 1.8 fold

PGV04 (antibody)
IC50 [14]: 0.175 µg/mL
